Data reported in patent publication US20210145976A1.

Molecular target: human serum albumin (human) (UniProt P02768)
Test: screening ELISA

Chain of human serum albumin (human) (P02768 25-609 limits assumed): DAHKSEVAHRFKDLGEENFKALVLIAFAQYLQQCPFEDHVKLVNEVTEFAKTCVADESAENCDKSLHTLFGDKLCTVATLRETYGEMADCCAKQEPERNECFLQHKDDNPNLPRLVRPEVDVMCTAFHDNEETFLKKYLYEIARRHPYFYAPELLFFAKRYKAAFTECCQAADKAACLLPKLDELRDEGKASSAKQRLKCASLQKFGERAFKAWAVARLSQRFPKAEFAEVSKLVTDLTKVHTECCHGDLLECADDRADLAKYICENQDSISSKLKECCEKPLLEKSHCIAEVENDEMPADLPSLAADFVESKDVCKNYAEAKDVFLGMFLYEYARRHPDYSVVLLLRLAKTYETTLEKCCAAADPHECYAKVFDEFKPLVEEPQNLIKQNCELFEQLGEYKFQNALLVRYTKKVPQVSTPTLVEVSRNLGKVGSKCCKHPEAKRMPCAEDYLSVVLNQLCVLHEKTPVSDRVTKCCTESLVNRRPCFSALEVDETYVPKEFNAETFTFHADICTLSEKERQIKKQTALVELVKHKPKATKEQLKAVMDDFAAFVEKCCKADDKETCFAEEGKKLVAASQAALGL

Row | HSA | Binder
1 | 67500 | SEQ ID NO 189 (designed binder) MLPAPKNLVVSRVTEDSARLSWTAPDAAFDSFHEWVYFGEAIVLTVPGSERSYDLTGLKPGTEYFVDIWGVKGGTVSKPLSAIFTT
2 | 34600 | SEQ ID NO 196 (designed binder) MLPAPKNLVVSRVTEDSARLSWTAPDAAFDSFNIHYVEWWVLGEAIVLTVPGSERSYDLTGLKPGTEYPVYIYGVKGGPKSIPLSAIFTT
3 | 11400 | SEQ ID NO 201 (designed binder) MLPAPKNLVVSRVTEDSARLSWTAPDAAFDSFNIDYWETWVIGEAIVLTVPGSERSYDLTGLKPGTEYEVIIPGVKGGTISPPLSAIFTT
4 | 2100 | SEQ ID NO 200 (designed binder) MLPAPKNLVVSRVTEDSARLSWTAPDAAFDSFYIEYYEWMHTGEAIVLTVPGSERSYDLTGLKPGTEYSVYIYGVKGGYPSSPLSAIFTT
5 | 3650 | SEQ ID NO 221 (designed binder) MLPAPKNLVVSRVTEDSARLSWTAPDAAFDSFHISYQEVVAEGEAIYLRVPGSERSYDLTGLKPGTEYYVLIHGVKGGYESKPLDASFTT
6 | 3050 | SEQ ID NO 198 (designed binder) MLPAPKNLVVSRVTEDSARLSWTAPDAAFDSFLIAYNEDRKFGEAIVLTVPGSERSYDLTGLKPGTEYDVWIEGVKGGSLSFPLSAIFTT
7 | 16500 | SEQ ID NO 224 (designed binder) MLLAPKNLVVSRVTEDSARLSWTAPDAAFDSFRYLEQGLYGEAIVLTVPGSERSYDLTGLKPGTEYWVEIIGVKGGEYSTPLSAIFTT
8 | 90200 | SEQ ID NO 195 (designed binder) MLPAPKNLVVSRVTEDSARLSWTAPDAAFDSFPIEYDEIPFWGEAIVLTVPGSERSYDLTGLKPGTEYRVWIHGVKGGNSSWPLSAIFTT
9 | 11800 | SEQ ID NO 217 (designed binder) MLPAPKNLVVSRVTEDSARLSWTAPDAAFDSFIIEYWEWYFAGEAIVLTVPGSERSYDLTGLKPGTEYTVWITGVKGGTWSEPLSAIFTT
10 | 4900 | SEQ ID NO 190 (designed binder) MLPAPKNLVVSRVTEDSARLSWTAPDAAFDSFFIGYPEYPATGEAITLFVPGSERSYDLTGLKPGTEYNVVIQGVKGGRPSNPLVVAFTT
11 | 3350 | SEQ ID NO 188 (designed binder) MLPAPKNLVVSRVTEDSARLSWTAPDAAFDSFLIPYAETSPSGEAIVLTVPGSERSYDLTGLKPGTEYSVLIHGVKGGKLSLPLSAIFTT
12 | 1750 | SEQ ID NO 215 (designed binder) MLPAPKNLVVSRVTEDSARLSWTAPDAAFDSFLIPYAETSPTGEAIVLTVPGSERSYDLTGLKPGTEYSVLIHGVKGGYPSSPLSAIFTT
13 | 21800 | SEQ ID NO 216 (designed binder) MLPAPKNLVVSRVTEDSARLSWTAPDAAFDSFPIAYAEPTPSGEAIVLTVPGSERSYDLTGLKPGTEYSVLIHGVKGGGLSLPLSAIFTT
14 | 46700 | SEQ ID NO 208 (designed binder) MLPAPKNLVVSRVTEDSARLSWTAPDAAFDSFGIVYREPYVGGEAIVLTVPGSERSYDLTGLKPGTEYGVPIPGVKGGYDSGPLSAIFTT
15 | 4100 | SEQ ID NO 192 (designed binder) MLPAPKNLVVSRVTEDSARLSWTALDAAFDSFFIGYLEPQPPGEAIVLTVPGSERSYDLTGLKPGTEYNVTIQGVKGGFPSMPLSAIFTT
16 | 25600 | SEQ ID NO 207 (designed binder) MLPAPKNLVVSRVTEDSARLSWTAPDAAFDSFFIGYLEPQPPGEAIVLTVPGSERSYDLTGLKPGTEYNVTIQGVKGGTPSEPLSAISTT
17 | 14400 | SEQ ID NO 199 (designed binder) MLPAPKNLVVSRVTEDSARLSWTAPDAAFDSFGIRYFEWWDLGEAIVLTVPGSERSYDPTGLKPGTEYNVTIQGVKGGFPSMPLSAIFTT
18 | 3040 | SEQ ID NO 46 (designed binder) MLPAPKNLVVSRVTEDSARLSWTAPDAAFDSFTIEYFEFTGTGEAIVLTVPGSERSYDLTGLKPGTEYYVSIYGVKGGLLSAPLSAIFTT
19 | 2800 | SEQ ID NO 202 (designed binder) MLPAPKNLVVSRVTEDSARLSWTAPDAAFDSFYIDYLELTYSGEAIVLTVPGSERSYDLTGLKPGTEYYVYIYGVKGGYPSSPLSAIFTT
20 | 14100 | SEQ ID NO 225 (designed binder) MLPAPKNLVVSRVTEDSARLSWTAPDAAFDSFKIEYFEYVGYGEAIVLTVPGSERSYDLTGLKPGTEYYVAIYGVKGGWYSRPLSAIFTT
21 | 2600 | SEQ ID NO 219 (designed binder) MLPAPKNLVVSRVTEDSARLSWTAPDAAFDSFHIDYLELTYAGEAIVLTVPGSERSYDLTGLKPGTEYYVTIYGVKGGYPSSPLSAIFTT

Row | HSA | Binder
22 | 3950 | SEQ ID NO 222 (designed binder) MLPAPKNLVVSRVTEDSARLSWTAPDAAFDSFYIEYFEWTGSGEAIVLTVPGSERSYDLTGLKPGTEYNVAIYGVKGGAVSYPLSAIFTT
23 | 2800 | SEQ ID NO 48 (designed binder) MLPAPKNLVVSRVTEDSARLSWTAPDAAFDSFVIEYFEQFNLGEAIVLTVPGSERSYDLTGLKPGTEYWVGIYGVKGGWLSHPLSAIFTT
24 | 2200 | SEQ ID NO 214 (designed binder) MLPAPKNLVVSRVTEDSARLSWTAPDAAFDSFAIPYGERQELGEAIVLTVPGSERSYDLTGLKPGTEYFVVIQGVKGGQPSYPLSAIFTT
25 | 34000 | SEQ ID NO 191 (designed binder) MLPAPENLVVSRVTEDSARLSWTAPDAAFDSFEITYEENWRRGEAIVLTVPGSERSYDLTGPKPGTEYIVIIQGVKGGAESWPLSAIFTT
26 | 9800 | SEQ ID NO 213 (designed binder) MLPAPKNLVVSRVTEDSARLSWTAPDAAFDSFWIYYWEIERAGEAIRLDVPGSERSYDLTGLKPGTEYRVDIWGVKGGPTSGPLRATFTT
27 | 24600 | SEQ ID NO 204 (designed binder) MLPAPKNLVVSRVTEDSARLPWTAPDAAFDSFWISYYESVGYGEAIVLTVPGSERSYDLTGLKPGTEYYVDISGVKGGVYSLPLSAIFTT
28 | 3000 | SEQ ID NO 211 (designed binder) MLPAPKNLVVSRVTEDSARLSWTAPDAAFDSFWINYYEAQPDGEAIVLTVPGSERSYDLTGLKPGTEYDVEIAGVKGGTASLPLSAIFTT
29 | 2250 | SEQ ID NO 210 (designed binder) MLPAPKNLVVSRVTEDSARLSWTAPDAAFDSFSIVYGERFVNGEAIVLTVPGSERSYDLTGLKPGTEYHVYIDGVKGGDLSWPLSAIFTT
30 | 9400 | SEQ ID NO 220 (designed binder) MLPAPKNLVVSRVTEDSARLSWTAPDAAFDSFHIIYEEDGTEGEAIYLRVPGSERSYDLTGLKPGTEYEVDIEGVKGGVLSWPLFAEFTT
31 | 2850 | SEQ ID NO 226 (designed binder) MLPAPKNLVVSRVTEDSARLSWTAPDAAFDSFHIIYEEVLTEGEAIYLRVPGSERSYDLTGLKPGTEYGVTIKGVKGGAYSIPLIATFTT
32 | 17800 | SEQ ID NO 194 (designed binder) MLPAPKNLVVSRVTEDSARLSWTAPDAAFDSFEIDYDELAIYGEAIVLTVPGSERSYDLTGLKPGTEYRVFIYGVKGGWTSWPLSTIFTT
33 | 3350 | SEQ ID NO 205 (designed binder) MLPAPKNLVVSRVTEDSARLSWTAPDAAFDSFDIDYDEPAWNGEAIVLTVPGSERSYDLTGLKPGTEYRVFIYGVKGGNTSWPLSAIFTT
34 | 2650 | SEQ ID NO 206 (designed binder) MLPAPKNLVVSRVTEDSARLSWTAPDAAFDSFDIEYDELWKNGEAIVLTVPGSERSYDLTGLKPGTEYRVFIYGVKGGYGSFPLSAIFTT
35 | 3300 | SEQ ID NO 203 (designed binder) MLPAPKNLVVSRVTEDSARLSWTAPDAALDSFRIEYYESYGHGEAIVLTVPGSERSYDLTGLKPGTEYDVGIYGVKGGYYSRPLSAIFTT
36 | 2500 | SEQ ID NO 193 (designed binder) MLPAPKNLVVSRVTEDSARLSWTAPDAAFDSFTIWYAEAVGNGEAIVLTVPGSERSYDLTGLKPGTEYWVDIWGVKGGEFSSPLSAIFTT
37 | 2250 | SEQ ID NO 212 (designed binder) MLPAPKNLVVSRVTEDSARLSWTAPDAAFDSFIIEYWEQIGVGEAIVLTVPGSERSYDLTGLKPGTEYWVGIYGVKGGLLSSPLSAIFTT
38 | 52000 | SEQ ID NO 223 (designed binder) MLPAPKNLVVSRVTEDSARLSWTAPDAAFDSFTIWYAEALGDGEAIVLTVPGSERSYDLTGLKPGTEYFVDIPGVKGGTRSSPLSAISTT
39 | 33800 | SEQ ID NO 218 (designed binder) MLPAPKNLVVSRVTEDSARLSWTAPDAAFDSFTILYYEMVGEGEAIVLTVPGSERSYDLTGPKPGTEYWVDIYGVKGGGWSRPLSAIFTT
40 | 5200 | SEQ ID NO 47 (designed binder) MLPAPKNLVVSRVTEDSARLSWTAPDAAFDSFTIWYAEALGDGEAIVLTVPGSERSYDLTGLKPGTEYFVDIYGVKGGFWSLPLSAIFTT
41 | 18900 | SEQ ID NO 197 (designed binder) MLPAPKNLVVSRVTEDSARLSWTAPDAAFDSFKIDYLEINDNGEAIVLTVPGSERSYDLTGLKPGTEYPVYIWGVKGGYPSSPLSAIFTT
